Changes are numbered by the printed parent chain.
Tests used:
[1] = target: TBP (TATA-box binding protein) (Homo sapiens, UniProt P20226 1-339); test: femtosecond UV laser crosslinking, western blot; 2 mM MgCl2; 50 nJ, 1.25 J; NF1 binding buffer: 5 mM Tris-Cl pH 8.0, 90 mM NaCl (200 mM for EMSA and Fig. 2d), 0.5 mM EDTA, 5% glycerol, 0.55 mM beta-mercaptoethanol, 1 ug BSA; TBP: same + 2 mM MgCl2; 25 min, room temperature; details: protein: commercial; label: 5'-biotin on both strands
NF1 (nuclear factor 1/C) [2] = target: T1, NF1 (nuclear factor 1/C) (Sus scrofa (porcine), UniProt P21999 1-506); test: EMSA; 200 mM NaCl; protein:DNA 2.1:1 to 11:1; NF1 binding buffer: 5 mM Tris-Cl pH 8.0, 90 mM NaCl (200 mM for EMSA and Fig. 2d), 0.5 mM EDTA, 5% glycerol, 0.55 mM beta-mercaptoethanol, 1 ug BSA; TBP: same + 2 mM MgCl2; 25 min, room temperature; details: protein: recombinant; tags: 6xHis; chain copies: 2; label: 5'-biotin on both strands
NF1 (nuclear factor 1/C) [3] = target: T1, NF1 (nuclear factor 1/C); test: femtosecond UV laser crosslinking, western blot; 200 mM NaCl; 50 nJ pulses, total energy titrated; NF1 binding buffer: 5 mM Tris-Cl pH 8.0, 90 mM NaCl (200 mM for EMSA and Fig. 2d), 0.5 mM EDTA, 5% glycerol, 0.55 mM beta-mercaptoethanol, 1 ug BSA; TBP: same + 2 mM MgCl2; 25 min, room temperature; details: protein: recombinant; tags: 6xHis; chain copies: 2; label: 5'-biotin on both strands

T1 sequence (P21999 whole entry): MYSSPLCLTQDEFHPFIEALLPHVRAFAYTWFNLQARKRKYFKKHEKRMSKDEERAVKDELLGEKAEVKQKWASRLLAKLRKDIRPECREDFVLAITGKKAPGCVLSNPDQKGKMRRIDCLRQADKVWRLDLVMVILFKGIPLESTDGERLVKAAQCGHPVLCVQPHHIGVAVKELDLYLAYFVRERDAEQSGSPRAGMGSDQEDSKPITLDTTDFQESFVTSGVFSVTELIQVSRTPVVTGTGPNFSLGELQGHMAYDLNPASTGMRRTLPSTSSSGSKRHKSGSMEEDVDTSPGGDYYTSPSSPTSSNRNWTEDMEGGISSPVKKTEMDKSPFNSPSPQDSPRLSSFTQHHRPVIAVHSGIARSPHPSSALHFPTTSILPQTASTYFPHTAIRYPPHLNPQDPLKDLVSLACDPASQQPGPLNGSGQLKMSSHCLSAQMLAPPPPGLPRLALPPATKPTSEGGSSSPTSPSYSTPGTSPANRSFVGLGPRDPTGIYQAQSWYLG
Chain of TBP (TATA-box binding protein) (P20226 whole entry): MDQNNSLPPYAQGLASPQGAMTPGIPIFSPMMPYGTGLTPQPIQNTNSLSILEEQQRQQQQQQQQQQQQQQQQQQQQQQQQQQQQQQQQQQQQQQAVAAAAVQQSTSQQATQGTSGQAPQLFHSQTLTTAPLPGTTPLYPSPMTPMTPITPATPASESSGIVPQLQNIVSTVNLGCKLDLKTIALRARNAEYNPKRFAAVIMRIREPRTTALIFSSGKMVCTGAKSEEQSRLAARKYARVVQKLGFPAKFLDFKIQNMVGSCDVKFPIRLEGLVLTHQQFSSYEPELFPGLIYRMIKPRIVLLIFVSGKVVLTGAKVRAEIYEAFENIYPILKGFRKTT

B1: TBP wild-type AdML TATAA oligo (dsDNA)
DNA 1: CCTGAAGGGGGGCTATAAAAGGGGGTGGGGGCGCG
DNA 2: CGCGCCCCCACCCCCTTTTATAGCCCCCCTTCAGG
binding result [1]: binds

B2: NF1 wild-type consensus oligo (dsDNA)
DNA 1: AATTCCTTTTTTTGGATTGAAGCCAATCGGATAATGAGG
DNA 2: CCTCATTATCCGATTGGCTTCAATCCAAAAAAAGGAATT
binding result (NF1 (nuclear factor 1/C) [2]): binds

B3: NF1 wild-type oligo of Fig. 2d (dsDNA)
DNA 1: B2 DNA 1 with T3G, T13A, A31C, A33G
DNA 2: B2 DNA 2 with T7C, T9G, A27T, A37C
binding result (NF1 (nuclear factor 1/C) [3]): binds
